# Results published in patent US9315862B2, “Aptamer regulated nucleic acids and uses thereof” (California Institute of Technology, priority 2004, dated 2016).
# How the values were obtained:
# theophylline aptamer = conditions: cited from earlier work
# E. coli membrane = conditions: cited from earlier work
# [1] = system: target mRNA encoding green fluorescent protein (GFP); test: Protein expression assay: in vivo GFP regulation activity of antiswitches in yeast cells; type: cell-based, S. cerevisiae; conditions: for theophylline concentration at which the antiswitch switches GFP expression (inhibits expression / decreases to background levels): theophylline concentration in the media, s8 is an "on" switch; for switching theophylline concentration compared with s1-4: modified lower-affinity theophylline aptamer
# Protocol: (§1) Yeast cells were inoculated into synthetic complete media supplemented with the appropriate drop out solution and sugar source (2% raffinose, 1% sucrose) and grown overnight at 30° C. Cells were back diluted into fresh media to an OD600 of 0.1 and grown at 30° C. For assaying antiswitch activity, this fresh media contained appropriate concentrations of theophylline (Sigma), caffeine (Sigma), tetracycline (Sigma), or water (negative control) and expression was induced to a final concentration of 2% galactose, or an equivalent volume of water was added (noninduced control). After growing for three hours, the GFP and Venus levels were assayed on a Safire (Tecan) fluorescent plate reader set to the appropriate excitation (GFP-485 nm; Venus-515 nm) and emission (GFP-515 nm; Venus-[…]) wavelengths. For assaying the antiswitch temporal response, cells were back diluted into fresh media containing 2% galactose. After growing in inducing media for three hours, theophylline or water was added and fluorescence was monitored over time. Fluorescence was normalized for cell number by dividing relative fluorescence units (RFUs) by the OD600 of the culture.
# The expression of antiswitches in S. cerevisiae was accomplished using a novel non-coding RNA (ncRNA) expression construct similar to a previously described system (Taira et al., Nucleic Acids Res 19, 5125-30 (1991)) (see FIG. 6). Briefly, the RNA to be expressed is cloned between two hammerhead ribozymes known to self-cleave in vivo (Samarsky et al., Proc Natl Acad Sci USA 96, 6609-14 (1999)). This dual hammerhead construct can be placed under the control of Pol II promoters, and when transcribed the flanking hammerhead ribozymes cleave out from the desired RNA at an efficiency greater than 99% (see FIG. 11). The construct enables creation of ncRNAs with defined 5′ and 3′ ends that are free of potentially interfering flanking sequences. Antiswitch s1 was expressed in this construct under control of a galactose-inducible (GAL1) promoter in yeast cells. A plasmid containing a yeast enhanced GFP (yEGFP) (Mateus et al., Yeast 16, 1313-23 (2000)) under the control of a GAL1 promoter was transformed into the same cells (FIG. 1a).
# [2] = Structural probing of antiswitch by nuclease mapping (RNase T1) with theophylline alone
# Protocol: Antiswitch and target sequences were PCR amplified with primers containing a T7 polymerase promoter. RNA was transcribed using Ampliscribe T7 transcription kits (Epicentre) according to manufacture's instructions, except that transcription was carried out at 42° C. and for gel-shift assays antiswitches were radiolabeled by the addition of [α-^32P]-UTP to the transcription mix. The RNA was purified on a 15% denaturing gel, eluted, ethanol precipitated, and resuspended in water. RNA was quantified by OD260 readings. For nuclease mapping, antiswitches were 5′ end labeled with fluorescein (Molecular Probes) by incubating 25 μg of RNA with phosphate reactive label, dissolved in DMSO (Sigma), in labeling buffer (0.12 M methylimidazole pH 9.0, 0.16 M EDAC) for four hours, according to manufacturer's instructions. Labeled RNA was purified by ethanol precipitation and run on a 12% denaturing gel. Fluorescent bands were excised from the gel, eluted into water for three hours at 37° C., and ethanol precipitated.
# For nuclease mapping, fluorescein-labeled antiswitch RNA was resuspended in buffer (50 mM Tris-HCl pH 8.0, 100 mM NaCl, 5 mM MgCl2), denatured at 65° C. for three minutes, and allowed to slow cool to room temperature. Antiswitch RNA was incubated with varying concentrations of theophylline at room temperature for 15 minutes. RNase T1 (Ambion) was added to the antiswitch-ligand mixture and incubated at room temperature for 15 minutes. Cleavage products were visualized using laser-induced fluorescence capillary electrophoresis on a P/ACE MDQ machine (Beckman) using a single-stranded nucleic acid analysis kit (Beckman) according to manufacturer's instructions.
# [3] = system: yellow fluorescent variant protein (Venus) mRNA target; test: Protein expression assay: in vivo Venus (YFP) regulation by antiswitches in yeast cells; type: cell-based, S. cerevisiae
# Protocol: as §1
# To illustrate this we introduced into cells two switches each responsive to a different effector molecule and each regulating the protein expression of a different mRNA target: s1, a theophylline responsive GFP regulator, and s9 (see FIG. 9), a tetracycline responsive yellow fluorescent variant protein (Venus) (Nagai et al., Nat Biotechnol 20, 87-90 (2002)) regulator (FIG. 5a). Changes in the targeting capabilities of these molecules were made by swapping out the antisense stem and switching aptamer stem while keeping the remainder of the aptamer module the same. Concurrent expression of these two antiswitches with a plasmid carrying both GFP and Venus allowed for an assay of the simultaneous regulation of gene expression by modular antiswitch design. […] Furthermore, the addition of both ligands decreased expression of both GFP and Venus. […]
# GFP mRNA = test: RNA quantification by qRT-PCR of antiswitch s1 and target mRNA; type: cell-based, S. cerevisiae
# Protocol: Yeast cells were grown according to methods detailed in protein expression assays. Total RNA was extracted using standard acid phenol extraction procedures (Caponigro et al., Mol Cell Biol 13, 5141-8 (1993)). Briefly, cells were pelleted and frozen in liquid nitrogen. Pellets were resuspended in a 50 mM NaOAc (pH 5.2) and 10 mM EDTA buffer. Cells were lysed by the addition of SDS to a final concentration of 1.6% and equal volume of acid phenol. Solutions were kept at 65° C. with intermittent vortexing for 10 minutes. Following cooling on ice, the aqueous phase was extracted and further extraction was carried out with an equal volume of chloroform. RNA samples were ethanol precipitated and resuspended in water. Total RNA was quantified by OD260 readings. RNA samples were DNased (Invitrogen) according to manufacturer's instructions. cDNA was synthesized using gene-specific primers (see FIG. 13) and Superscript III reverse transciptase (Invitrogen) according to the manufacturer's instructions. qRT-PCR was performed on this cDNA using an iCycler iQ system (BioRAD). Samples were prepared using the iQ SYBR green supermix and primer pairs specific for different templates (see FIG. 13) on dilution series of the cDNA, according to the manufacturer's instructions. Data was analyzed using the iCycler iQ software.
# [4] = cells with s1 and s9, plasmid carrying both GFP and Venus
# [5] = theophylline and tetracycline, cells with s1 and s9
molecule,measurement,setting,value
Cn1c(=O)c2c(ncn2C)n(C)c1=O [caffeine],binding to the theophylline aptamer,theophylline aptamer,does not bind
Cn1c(=O)c2[nH]cnc2n(C)c1=O [theophylline],Kd,theophylline aptamer,290 nM
same,drop in theophylline concentration across the E. coli membrane,E. coli membrane,"> 1,000 fold"
"s8: redesigned ""on"" antiswitch regulator responsive to theophylline, SEQ ID NO: 8 (ACCUUUAGACAUUUAGAUACCAGCAUCGUCUUGAUGCCCUUGGCAGCUAAAUGUC; RNA, backbone not given here)",theophylline concentration at which the antiswitch switches GFP expression (inhibits expression / decreases to background levels),[1],around 1 mM
"s5: antiswitch with aptamer domain having 10-fold lower affinity to theophylline than s1, SEQ ID NO: 5 (nucleic acid, RNA, backbone not given here) ACCUUUAGACAUUUACCUCUAAAUGUCUAAAGGUGAUACCACGCGAAAGCGCCUUGGCAGCACCUUUAG","theophylline concentration required to switch, relative to s1",[1],~10 fold
same,switching theophylline concentration compared with s1-4,[1],higher theophylline concentrations
same,Kd of aptamer domain for theophylline relative to the aptamer used in s1 (higher Kd / lower affinity),theophylline aptamer,~10 fold
"s6: destabilized modified theophylline aptamer antiswitch based on s5, SEQ ID NO: 6 (nucleic acid, RNA, backbone not given here) ACCUUUAGACAUUUACCUCUACAUGUCUAAAGGUGAUACCACGCGAAAGCGCCUUGGCAGCACCUUUAG",switching theophylline concentration compared with s1-4,[1],higher theophylline concentrations
"s3: stabilized antiswitch construct, antisense stem five nucleotides longer than s1, SEQ ID NO: 3 (nucleic acid, RNA, backbone not given here) ACCUUUAGACAUUUAAUUAACCUCUUAAUUAAAUGUCUAAAGGUGAAGAUACCAGCAUCGUCUUGAUGCCCUUGGCAGCUUCACCUUUAG","theophylline concentration required to switch, relative to s1",[1],roughly 1.5 fold
same,"theophylline concentration required to switch, relative to s2",[1],~6 fold
same,"decrease (inhibition) of GFP expression from control/full expression levels in the ""off"" state",[1]; absence of theophylline,10%
same,theophylline concentration at which the antiswitch switches GFP expression (inhibits expression / decreases to background levels),[1],approximately 1.25 mM
"s1: theophylline-responsive ""off"" antiswitch RNA targeting GFP mRNA, SEQ ID NO: 1 (nucleic acid, chemistry not given here) ACCUUUAGACAUUUACCUCUAAAUGUCUAAAGGUGAUACCAGCAUCGUCUUGAUGCCCUUGGCAGCACCUUUAG",GFP expression on addition of caffeine,[1]; caffeine as negative control effector,does not change expression levels
same,GFP expression on addition of theophylline,[1]; [4],decreased
same,GFP expression on addition of both ligands,[1]; [5],decreased
same,antisense domain (peak 1) RNase T1 cleavage,[2]; 2 mM theophylline,appearance of peak 1
same,switching aptamer stem (peak 2) RNase T1 cleavage,[2]; 2 mM theophylline,absent
same,switching aptamer stem (peak 2) RNase T1 cleavage,[2]; absence of theophylline and 200 μM theophylline,cleaved
same,Venus expression on addition of theophylline,[3]; [4],unaffected
same,relative levels of target transcript,"GFP mRNA; cells harboring s1, absence versus high levels of theophylline",did not change significantly
same,steady-state relative level of antiswitch versus target levels,GFP mRNA; same promoter for antiswitch and target,"approximately 1,000 fold"
"s2: destabilized antiswitch construct based on s1 (A21 to C), SEQ ID NO: 2 (nucleic acid, RNA, backbone not given here) ACCUUUAGACAUUUACCUCUACAUGUCUAAAGGUGAUACCAGCAUCGUCUUGAUGCCCUUGGCAGCACCUUUAG",theophylline concentration at which the antiswitch switches GFP expression (inhibits expression / decreases to background levels),[1],greater than 0.2 mM
"s4: destabilized antiswitch construct with altered loop sequence (U18 to C), SEQ ID NO: 4 (nucleic acid, RNA, backbone not given here) ACCUUUAGACAUUUACCCCUACAUGUCUAAAGGUGAUACCAGCAUCGUCUUGAUGCCCUUGGCAGCACCUUUAG",theophylline concentration at which the antiswitch switches GFP expression (inhibits expression / decreases to background levels),[1],0.1 mM
"s9: tetracycline-responsive Venus (YFP) regulator antiswitch, SEQ ID NO: 9 (nucleic acid, chemistry not given here) UUGCUCACCAUGGUCCUCACCAUGGUGAGCAAAAAACAUACCAGAUCGCCACCCGCGCUUUAAUCUGGAGAGGUGAAGAAUACGACCACCUUUGCUCAC",GFP expression on addition of tetracycline,[1]; [4],not affecting
same,Venus expression on addition of tetracycline,[3]; [4],decreased
same,Venus expression on addition of both ligands,[3]; [5],decreased
